# According to paper PMC4844016 (ACS chemical neuroscience, 2015):
# Experiments:
# [1] = tested on: SH-SY5Y neuroblastoma cells; experiment: Apoptosis assay, Annexin V-FITC staining; format: cell-based; conditions: SHSY-5Y cells, 1 μM, data not shown
# [2] = Ion mobility-mass spectrometry, oligomer distributions; format: physicochemical; conditions: IM-MS, 10 μM peptide in 10 mM ammonium acetate, pH 7.4
# [3] = Electron microscopy of assembly morphology; format: physicochemical; conditions: EM
# [4] = Bis-ANS fluorescence, exposure of hydrophobic surfaces; format: physicochemical; conditions: 20 µM peptide incubated at 37°C, shaking
# [5] = Thermodynamics of fibril formation; format: physicochemical; conditions: ΔG^0 = −RT ln (1/Cr); 20 μM, 37°C, 21 days without shaking; four independent experiments
# [6] = Oligomerization by PICUP and SDS-PAGE; format: physicochemical; conditions: 25–35 μM peptide, cross-linked, SDS-PAGE, silver staining
# [7] = Quasielastic light scattering spectroscopy; format: physicochemical; conditions: QLS
# [8] = tested on: differentiated PC12 cells; experiment: MTT assay; format: cell-based; conditions: NGF-differentiated PC12 cells, 10 µM freshly prepared peptide, 24 h, 37°C; normalized to media control; three independent experiments, 6 wells
# Thioflavin T = format: physicochemical; conditions: 20 µM peptide, 40 µM ThT, pH 7.5, 37°C, shaking
Compound,effect of positive control on cells [1],oligomers assigned in ATD of z/n = −5/2 peak [2],"globules, size range, Day 0 ([3]; 37°C with shaking, day 0, Image J)","long fibrils, size range, Day 7 ([3]; 37°C with shaking, day 7)","short fibrils, assembly length, Day 7 ([3]; 37°C with shaking, day 7, value in parentheses)","annuli, inside diameter, Day 0 ([3]; day 0)","annuli, outside diameter, Day 0 ([3]; day 0)",time of peak Bis-ANS fluorescence [4],ΔG^0 of fibril formation [5],oligomer size distribution by PICUP [6],"RH of small particles, initial distribution ([7]; 0.5 h of incubation)","RH of larger particles also observed, initial distribution ([7]; 0.5 h of incubation, relatively few particles)",RH of oligomers remaining after 24 h ([7]; 24 h of incubation),maximal RH after 24 h ([7]; 24 h of incubation),decrease in MTT metabolism [8],time ThT fluorescence remained constant (lag) (Thioflavin T)
CN[C@@H]1C[C@H]2O[C@@](C)([C@@H]1OC)n1c3ccccc3c3c4c(c5c6ccccc6n2c5c31)C(=O)NC4 [staurosporine],complete disruption of membrane integrity,–,–,–,–,–,–,–,–,–,–,–,–,–,–,–
Amyloid β−protein (1–42) [Aβ42],–,"dimer, tetramer, hexamer, and dodecamer",11–23 nm,9–21 nm,56–303 nm,4–11 nm,13–25 nm,4 h,−8.45 (0.12) kcal/mole,prominent node of band intensity at pentamer-hexamer,8–10 nm,100–1000 nm,8–10 nm,> 1000 nm,≈ 23%,≈ 1 h
